The assay concerns the target PR8-PB1-GST (influenza A virus A/Puerto Rico/8/1934 …, UniProt P03431 1-757). In words: pull-down. The conditions noted are these: both partners purified.

B1: TRIM32-HIS (natural protein, human, UniProt Q13049 1-653, looked up)
chain: MAAAAASHLNLDALREVLECPICMESFTEEQLRPKLLHCGHTICRQCLEKLLASSINGVRCPFCSKITRITSLTQLTDNLTVLKIIDTAGLSEAVGLLMCRSCGRRLPRQFCRSCGLVLCEPCREADHQPPGHCTLPVKEAAEERRRDFGEKLTRLRELMGELQRRKAALEGVSKDLQARYKAVLQEYGHEERRVQDELARSRKFFTGSLAEVEKSNSQVVEEQSYLLNIAEVQAVSRCDYFLAKIKQADVALLEETADEEEPELTASLPRELTLQDVELLKVGHVGPLQIGQAVKKPRTVNVEDSWAMEATASAASTSVTFREMDMSPEEVVASPRASPAKQRGPEAASNIQQCLFLKKMGAKGSTPGMFNLPVSLYVTSQGEVLVADRGNYRIQVFTRKGFLKEIRRSPSGIDSFVLSFLGADLPNLTPLSVAMNCQGLIGVTDSYDNSLKVYTLDGHCVACHRSQLSKPWGITALPSGQFVVTDVEGGKLWCFTVDRGSGVVKYSCLCSAVRPKFVTCDAEGTVYFTQGLGLNLENRQNEHHLEGGFSIGSVGPDGQLGRQISHFFSENEDFRCIAGMCVDARGDLIVADSSRKEILHFPKGGGYSVLIREGLTCPVGIALTPKGQLLVLDCWDHCIKIYSYHLRRYSTP
notes: also called HIS-TRIM32; HIS-tagged TRIM32
Take B1: the binding result is listed as “binds”.
